For two substances, activity (Ura+ transformants per 10^7 cells) results are on record in patent US20050009182.

This data set concerns the target T1, phiC31 integrase (Streptomyces phage phiC31) (UniProt Q9T221).
T1 sequence: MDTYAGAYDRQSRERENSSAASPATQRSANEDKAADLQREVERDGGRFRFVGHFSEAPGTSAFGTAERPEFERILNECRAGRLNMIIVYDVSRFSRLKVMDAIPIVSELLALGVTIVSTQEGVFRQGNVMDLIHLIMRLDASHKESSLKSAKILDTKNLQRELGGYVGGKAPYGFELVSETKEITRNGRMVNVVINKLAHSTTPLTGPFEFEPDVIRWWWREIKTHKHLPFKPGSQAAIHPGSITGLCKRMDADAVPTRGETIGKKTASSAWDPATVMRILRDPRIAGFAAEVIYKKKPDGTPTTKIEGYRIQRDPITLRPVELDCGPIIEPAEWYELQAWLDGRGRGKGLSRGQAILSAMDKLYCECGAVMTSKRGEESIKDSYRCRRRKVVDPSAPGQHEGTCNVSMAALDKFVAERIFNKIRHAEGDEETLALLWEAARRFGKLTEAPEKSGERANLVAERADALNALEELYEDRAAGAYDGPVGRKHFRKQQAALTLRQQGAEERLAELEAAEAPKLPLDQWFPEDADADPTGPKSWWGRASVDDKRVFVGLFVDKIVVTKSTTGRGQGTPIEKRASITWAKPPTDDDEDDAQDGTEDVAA
Put plainly: cell_activity.

“phiC31 attP 84 bp (ApaI-SacI fragment of pHS282)”: the activity (Ura+ transformants per 10^7 cells) (S. pombe FY527attPx2, linear attB-ura4-attB plus pLT43, 19 without integrase) was determined as 1570.

Take “phiC31 attB (500 bp BamHI-XbaI fragment of pHS21)”: for the setting “S. pombe FY527attPx2, circular pLT50 plus pLT43, 63 without integrase”, the activity (Ura+ transformants per 10^7 cells) was 2560.
